Paper PMC9036094, “Antigen-derived peptides engage the ER stress sensor IRE1α to curb dendritic cell cross-presentation” (The Journal of Cell Biology, 2022)

System: ATF6 in BMDCs
Experiment: ATF6 activation in BMDCs (immunoblot, proteolytic processing)
Format: cell-based, mouse
Conditions: MG132 5 μM or ovalbumin 500 μg/ml, in words
Procedure: Figure S1. Antigen pulsing of BMDCs activates IRE1α. (A) BMDCs were treated with MG132 (5 μM) or ovalbumin (500 μg/ml) for indicated time points and analyzed by IB. (B) BMDCs were pulsed with ovalbumin (500 μg/ml) and G9668 (3 μM) for indicated time periods and analyzed by IB. (C) Molecular structure, potency, and kinase selectivity of G9668. (D) Schematic representation of G9668 interaction with 220 kinases at 1 μM. Size and color of circles represent interaction strength. Analysis was conducted by KinomeScan. (E) BMDCs were pulsed for 4 h with APC-tagged ovalbumin or soluble CD4-Fc protein (500 μg/ml) with amiloride (10 μM); uptake of protein was assayed by flow cytometry (n = 3). (F) WT or MyD88 KO Flt3L-derived BMDCs were pulsed with ovalbumin (500 μg/ml) or soluble CD4-Fc protein (500 μg/ml), or treated with LPS (10 μg/ml) for 4 h and analyzed by IB. (G) MEFs and BMDCs were pulsed with ovalbumin or treated with Tg (100 nM) for 4 h and analyzed by IB. Images in A, B, F, and G represent at least two similar experiments, and molecular weights represent kD; E bar graphs represent mean ± SD from three independent biological repeats. Analysis for E was performed using unpaired, two-tailed t test; *, P ≤ 0.05; **, P ≤ 0.01. Source data are available for this figure: SourceData FS1. […]

B1: ovalbumin: classical protein antigen ovalbumin (Sigma-Aldrich) (protein)
chain: MGSIGAASMEFCFDVFKELKVHHANENIFYCPIAIMSALAMVYLGAKDSTRTQINKVVRFDKLPGFGDSIEAQCGTSVNVHSSLRDILNQITKPNDVYSFSLASRLYAEERYPILPEYLQCVKELYRGGLEPINFQTAADQARELINSWVESQTNGIIRNVLQPSSVDSQTAMVLVNAIVFKGLWEKAFKDEDTQAMPFRVTEQESKPVQMMYQIGLFRVASMASEKMKILELPFASGTMSMLVLLPDEVSGLEQLESIINFEKLTEWTSSNVMEERKIKVYLPRMKMEEKYNLTSVLMAMGITDVFSSSANLSGISSAESLKISQAVHAAHAEINEAGREVVGSAEAGVDAASVSEEFRADHPFLFCIKHIATNAVLFFGRCVSP
  ATF6 activation: relatively minimal activation
